Data from publication PMC4405695 (2015).

Biological target: GST-Rab6A Q72L (UniProt P20340 1-208, Q72L)
Experiment: GTPγS-loaded Rab6A

GST-Rab6A Q72L, sequence (P20340 whole entry Q72L): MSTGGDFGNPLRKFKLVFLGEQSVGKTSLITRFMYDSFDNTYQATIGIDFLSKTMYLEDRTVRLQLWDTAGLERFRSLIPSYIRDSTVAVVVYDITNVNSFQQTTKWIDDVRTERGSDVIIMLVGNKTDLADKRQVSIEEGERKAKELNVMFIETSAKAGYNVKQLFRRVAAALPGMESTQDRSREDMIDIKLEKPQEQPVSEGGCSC

Kd: 170 nM
B1: KIF1C-355-His (domain or fragment)
chain: MAGASVKVAVRVRPFNARETSQDAKCVVSMQGNTTSIINPKQSKDAPKSFTFDYSYWSHTSTEDPQFASQQQVYRDIGEEMLLHAFEGYNVCIFAYGQTGAGKSYTMMGRQEPGQQGIVPQLCEDLFSRVSENQSAQLSYSVEVSYMEIYCERVRDLLNPKSRGSLRVREHPILGPYVQDLSKLAVTSYADIADLMDCGNKARTVAATNMNETSSRSHAVFTIVFTQRCHDQLTGLDSEKVSKISLVDLAGSERADSSGARGMRLKEGANINKSLTTLGKVISALADMQSKKRKSDFIPYRDSVLTWLLKENLGGNSRTAMIAALSPADINYEETLSTLRYADRTKQIRNTVSVN
